From US20230406885A1, “CYCLIC PEPTIDES FOR TRAPPING INTERLEUKIN-1 BETA” (MERCK SHARP & DOHME LLC, priority 2022, published 2023)
*1 amine or outer side, *2 acyl side, *3 side chain or, on linkers, in order; H or OH if unused. [ ]: non-standard residue; d: D form. 3AzaPhe4AcPip = (S)-3-(6-(4-acetylpiperazin-1-yl)pyridin-3-yl)-2-aminopropanoic acid, CC(=O)N1CCN(c2ccc(C[C@H](N[*:1])C(=O)[*:2])cn2)CC1; Pro(trans-4-NH2) = O=C([C@@H]1C[C@@H](N[*:3])CN1[*:1])[*:2]; Trp(βS-Me,4-F) = C[C@@H](c1c[nH]c2cccc(F)c12)[C@H](N)C(=O)O; Bip(4'-COOH) = N[C@@H](Cc1ccc(-c2ccc(C(=O)O)cc2)cc1)C(=O)O; Phe(3-CH2NH2) = O=C([C@H](Cc1cccc(CN[*:3])c1)N[*:1])[*:2]; mBip = (S)-2-amino-3-(3-phenylphenyl)propanoic acid; Phe(3-allyloxy) = C=CCOc1cccc(C[C@H](N)C(=O)O)c1; Phe(4-COOH) = N[C@@H](Cc1ccc(C(=O)O)cc1)C(=O)O; hTyr = N[C@@H](CCc1ccc(O)cc1)C(=O)O; dDab = NCC[C@@H](N)C(=O)O; dNMeA = CN[C@H](C)C(=O)O; Nva = CCC[C@H](N)C(=O)O

Target: Recombinant human IL-1β (BioLegend 579404) (human, UniProt P01584 117-269)
Test: cell-based or functional assay

MRC5 IC50 [nM] | Binder
0.296 | cyclo([Bip(4'-COOH)]W[Phe(4-COOH)]G[Pro(trans-4-NH2)][Trp(βS-Me,4-F)]D[dNMeA]G[Bip(4'-COOH)][Phe(3-CH2NH2)]S[dA][hTyr]) (SMILES C[C@@H]1C(=O)NCC(=O)N[C@@H](Cc2ccc(-c3ccc(C(=O)O)cc3)cc2)C(=O)N[C@@H](Cc2cccc(CN)c2)C(=O)N[C@@H](CO)C(=O)N[C@H](C)C(=O)N[C@@H](CCc2ccc(O)cc2)C(=O)N[C@@H](Cc2ccc(-c3ccc(C(=O)O)cc3)cc2)C(=O)N[C@@H](Cc2c[nH]c3ccccc23)C(=O)N[C@@H](Cc2ccc(C(=O)O)cc2)C(=O)NCC(=O)N2C[C@H](N)C[C@H]2C(=O)N[C@@H]([C@@H](C)c2c[nH]c3cccc(F)c23)C(=O)N[C@@H](CC(=O)O)C(=O)N1C) [SEQ ID NO: 74]
0.122 | cyclo([Bip(4'-COOH)]W[Phe(4-COOH)]G[Pro(trans-4-NH2)][Trp(βS-Me,4-F)]D[dNMeA]G[Bip(4'-COOH)][Phe(3-allyloxy)]L[dA][hTyr]) (SMILES C=CCOc1cccc(C[C@@H]2NC(=O)[C@H](Cc3ccc(-c4ccc(C(=O)O)cc4)cc3)NC(=O)CNC(=O)[C@@H](C)N(C)C(=O)[C@H](CC(=O)O)NC(=O)[C@H]([C@@H](C)c3c[nH]c4cccc(F)c34)NC(=O)[C@@H]3C[C@@H](N)CN3C(=O)CNC(=O)[C@H](Cc3ccc(C(=O)O)cc3)NC(=O)[C@H](Cc3c[nH]c4ccccc34)NC(=O)[C@H](Cc3ccc(-c4ccc(C(=O)O)cc4)cc3)NC(=O)[C@H](CCc3ccc(O)cc3)NC(=O)[C@@H](C)NC(=O)[C@H](CC(C)C)NC2=O)c1) [SEQ ID NO: 76]
0.0509 | cyclo([Bip(4'-COOH)]W[Phe(4-COOH)]G[Pro(trans-4-NH2)][Trp(βS-Me,4-F)]D[dNMeA]G[Bip(4'-COOH)][Phe(3-CH2NH2)]L[dA][hTyr]) (SMILES CC(C)C[C@@H]1NC(=O)[C@H](Cc2cccc(CN)c2)NC(=O)[C@H](Cc2ccc(-c3ccc(C(=O)O)cc3)cc2)NC(=O)CNC(=O)[C@@H](C)N(C)C(=O)[C@H](CC(=O)O)NC(=O)[C@H]([C@@H](C)c2c[nH]c3cccc(F)c23)NC(=O)[C@@H]2C[C@@H](N)CN2C(=O)CNC(=O)[C@H](Cc2ccc(C(=O)O)cc2)NC(=O)[C@H](Cc2c[nH]c3ccccc23)NC(=O)[C@H](Cc2ccc(-c3ccc(C(=O)O)cc3)cc2)NC(=O)[C@H](CCc2ccc(O)cc2)NC(=O)[C@@H](C)NC1=O) [SEQ ID NO: 73]
0.296 | cyclo([Bip(4'-COOH)]W[Phe(4-COOH)]G[Pro(trans-4-NH2)][Trp(βS-Me,4-F)]D[dNMeA]G[Bip(4'-COOH)]KL[dDab][hTyr]) (SMILES CC(C)C[C@@H]1NC(=O)[C@H](CCCCN)NC(=O)[C@H](Cc2ccc(-c3ccc(C(=O)O)cc3)cc2)NC(=O)CNC(=O)[C@@H](C)N(C)C(=O)[C@H](CC(=O)O)NC(=O)[C@H]([C@@H](C)c2c[nH]c3cccc(F)c23)NC(=O)[C@@H]2C[C@@H](N)CN2C(=O)CNC(=O)[C@H](Cc2ccc(C(=O)O)cc2)NC(=O)[C@H](Cc2c[nH]c3ccccc23)NC(=O)[C@H](Cc2ccc(-c3ccc(C(=O)O)cc3)cc2)NC(=O)[C@H](CCc2ccc(O)cc2)NC(=O)[C@@H](CCN)NC1=O) [SEQ ID NO: 68]
0.046 | cyclo([Bip(4'-COOH)]W[Phe(4-COOH)]G[Pro(trans-4-NH2)][Trp(βS-Me,4-F)]D[dNMeA]G[Bip(4'-COOH)]KL[dA][hTyr]) (SMILES CC(C)C[C@@H]1NC(=O)[C@H](CCCCN)NC(=O)[C@H](Cc2ccc(-c3ccc(C(=O)O)cc3)cc2)NC(=O)CNC(=O)[C@@H](C)N(C)C(=O)[C@H](CC(=O)O)NC(=O)[C@H]([C@@H](C)c2c[nH]c3cccc(F)c23)NC(=O)[C@@H]2C[C@@H](N)CN2C(=O)CNC(=O)[C@H](Cc2ccc(C(=O)O)cc2)NC(=O)[C@H](Cc2c[nH]c3ccccc23)NC(=O)[C@H](Cc2ccc(-c3ccc(C(=O)O)cc3)cc2)NC(=O)[C@H](CCc2ccc(O)cc2)NC(=O)[C@@H](C)NC1=O) [SEQ ID NO: 67]
0.0926 | cyclo([Bip(4'-COOH)]W[Phe(4-COOH)]G[Pro(trans-4-NH2)][Trp(βS-Me,4-F)]D[dNMeA]G[Bip(4'-COOH)]K[Nva][dA][hTyr]) (SMILES CCC[C@@H]1NC(=O)[C@H](CCCCN)NC(=O)[C@H](Cc2ccc(-c3ccc(C(=O)O)cc3)cc2)NC(=O)CNC(=O)[C@@H](C)N(C)C(=O)[C@H](CC(=O)O)NC(=O)[C@H]([C@@H](C)c2c[nH]c3cccc(F)c23)NC(=O)[C@@H]2C[C@@H](N)CN2C(=O)CNC(=O)[C@H](Cc2ccc(C(=O)O)cc2)NC(=O)[C@H](Cc2c[nH]c3ccccc23)NC(=O)[C@H](Cc2ccc(-c3ccc(C(=O)O)cc3)cc2)NC(=O)[C@H](CCc2ccc(O)cc2)NC(=O)[C@@H](C)NC1=O) [SEQ ID NO: 71]
0.0601 | cyclo([Bip(4'-COOH)]W[Phe(4-COOH)]G[Pro(trans-4-NH2)][Trp(βS-Me,4-F)]D[dNMeA]G[Bip(4'-COOH)]WG[dDab][hTyr]) (SMILES C[C@@H]1C(=O)NCC(=O)N[C@@H](Cc2ccc(-c3ccc(C(=O)O)cc3)cc2)C(=O)N[C@@H](Cc2c[nH]c3ccccc23)C(=O)NCC(=O)N[C@H](CCN)C(=O)N[C@@H](CCc2ccc(O)cc2)C(=O)N[C@@H](Cc2ccc(-c3ccc(C(=O)O)cc3)cc2)C(=O)N[C@@H](Cc2c[nH]c3ccccc23)C(=O)N[C@@H](Cc2ccc(C(=O)O)cc2)C(=O)NCC(=O)N2C[C@H](N)C[C@H]2C(=O)N[C@@H]([C@@H](C)c2c[nH]c3cccc(F)c23)C(=O)N[C@@H](CC(=O)O)C(=O)N1C) [SEQ ID NO: 77]
0.0732 | cyclo([Bip(4'-COOH)]W[Phe(4-COOH)]G[Pro(trans-4-NH2)][Trp(βS-Me,4-F)]D[dNMeA]G[Bip(4'-COOH)]WL[dA][hTyr]) (SMILES CC(C)C[C@@H]1NC(=O)[C@H](Cc2c[nH]c3ccccc23)NC(=O)[C@H](Cc2ccc(-c3ccc(C(=O)O)cc3)cc2)NC(=O)CNC(=O)[C@@H](C)N(C)C(=O)[C@H](CC(=O)O)NC(=O)[C@H]([C@@H](C)c2c[nH]c3cccc(F)c23)NC(=O)[C@@H]2C[C@@H](N)CN2C(=O)CNC(=O)[C@H](Cc2ccc(C(=O)O)cc2)NC(=O)[C@H](Cc2c[nH]c3ccccc23)NC(=O)[C@H](Cc2ccc(-c3ccc(C(=O)O)cc3)cc2)NC(=O)[C@H](CCc2ccc(O)cc2)NC(=O)[C@@H](C)NC1=O) [SEQ ID NO: 78]
0.0973 | cyclo([Bip(4'-COOH)]W[Phe(4-COOH)]G[Pro(trans-4-NH2)][Trp(βS-Me,4-F)]D[dNMeA]G[Bip(4'-COOH)]KLG[hTyr]) (SMILES CC(C)C[C@@H]1NC(=O)[C@H](CCCCN)NC(=O)[C@H](Cc2ccc(-c3ccc(C(=O)O)cc3)cc2)NC(=O)CNC(=O)[C@@H](C)N(C)C(=O)[C@H](CC(=O)O)NC(=O)[C@H]([C@@H](C)c2c[nH]c3cccc(F)c23)NC(=O)[C@@H]2C[C@@H](N)CN2C(=O)CNC(=O)[C@H](Cc2ccc(C(=O)O)cc2)NC(=O)[C@H](Cc2c[nH]c3ccccc23)NC(=O)[C@H](Cc2ccc(-c3ccc(C(=O)O)cc3)cc2)NC(=O)[C@H](CCc2ccc(O)cc2)NC(=O)CNC1=O) [SEQ ID NO: 70]
0.334 | cyclo([Bip(4'-COOH)]W[Phe(4-COOH)]G[Pro(trans-4-NH2)][Trp(βS-Me,4-F)]D[dNMeA]G[Bip(4'-COOH)]KL[dS][hTyr]) (SMILES CC(C)C[C@@H]1NC(=O)[C@H](CCCCN)NC(=O)[C@H](Cc2ccc(-c3ccc(C(=O)O)cc3)cc2)NC(=O)CNC(=O)[C@@H](C)N(C)C(=O)[C@H](CC(=O)O)NC(=O)[C@H]([C@@H](C)c2c[nH]c3cccc(F)c23)NC(=O)[C@@H]2C[C@@H](N)CN2C(=O)CNC(=O)[C@H](Cc2ccc(C(=O)O)cc2)NC(=O)[C@H](Cc2c[nH]c3ccccc23)NC(=O)[C@H](Cc2ccc(-c3ccc(C(=O)O)cc3)cc2)NC(=O)[C@H](CCc2ccc(O)cc2)NC(=O)[C@@H](CO)NC1=O) [SEQ ID NO: 69]
0.165 | cyclo([Bip(4'-COOH)]W[Phe(4-COOH)]G[Pro(trans-4-NH2)][Trp(βS-Me,4-F)]D[dNMeA]G[Bip(4'-COOH)][mBip]L[dA][hTyr]) [SEQ ID NO: 75]
0.135 | cyclo([3AzaPhe4AcPip]W[Phe(4-COOH)]G[Pro(trans-4-NH2)][Trp(βS-Me,4-F)]D[dNMeA]G[Bip(4'-COOH)]KL[dDab][hTyr]) (SMILES CC(=O)N1CCN(c2ccc(C[C@@H]3NC(=O)[C@H](CCc4ccc(O)cc4)NC(=O)[C@@H](CCN)NC(=O)[C@H](CC(C)C)NC(=O)[C@H](CCCCN)NC(=O)[C@H](Cc4ccc(-c5ccc(C(=O)O)cc5)cc4)NC(=O)CNC(=O)[C@@H](C)N(C)C(=O)[C@H](CC(=O)O)NC(=O)[C@H]([C@@H](C)c4c[nH]c5cccc(F)c45)NC(=O)[C@@H]4C[C@@H](N)CN4C(=O)CNC(=O)[C@H](Cc4ccc(C(=O)O)cc4)NC(=O)[C@H](Cc4c[nH]c5ccccc45)NC3=O)cn2)CC1) [SEQ ID NO: 7]
0.107 | cyclo([Bip(4'-COOH)]W[Phe(4-COOH)]G[Pro(trans-4-NH2)][Trp(βS-Me,4-F)]D[dNMeA]G[Bip(4'-COOH)]KS[dA][hTyr]) (SMILES C[C@@H]1C(=O)NCC(=O)N[C@@H](Cc2ccc(-c3ccc(C(=O)O)cc3)cc2)C(=O)N[C@@H](CCCCN)C(=O)N[C@@H](CO)C(=O)N[C@H](C)C(=O)N[C@@H](CCc2ccc(O)cc2)C(=O)N[C@@H](Cc2ccc(-c3ccc(C(=O)O)cc3)cc2)C(=O)N[C@@H](Cc2c[nH]c3ccccc23)C(=O)N[C@@H](Cc2ccc(C(=O)O)cc2)C(=O)NCC(=O)N2C[C@H](N)C[C@H]2C(=O)N[C@@H]([C@@H](C)c2c[nH]c3cccc(F)c23)C(=O)N[C@@H](CC(=O)O)C(=O)N1C) [SEQ ID NO: 72]
